Positions count from the first letter of the chain named.
B1: SRP1848-E06 (antibody, V domains shown)
VH: EVQLVESGGGLVQPSGSLRLSCAASGFNINRYYIHWVRQAPGKGLEWVGGITPNDGYTDYADSVEGRFTTSADTSKNTAYLQMNSLRAEDTAVYYCARGTWSWPSGHSYYLDYWGQGTLVTVSS
VL: not shown
notes: VH/VL only; Fc-bearing IgG format with trastuzumab LC, HIS/FLAG-tagged, cell-free expressed; constant regions not tied; also called Antibody 35
B2: SRP1848-A01 (antibody, V domains shown)
VH: EVQLVESGGGLVQPGGSLRLSCAASGFNITRYSIHWVRQAPGKGLEWVAGILPESGGTSYADSVKGRFTISADTSKNTAYLQMNSLRAEDTAVYYCARHIYPWDWFSNYVLDYWGQGTLVTVSS
VL: not shown
notes: VH/VL only; Fc-bearing IgG format with trastuzumab LC, HIS/FLAG-tagged, cell-free expressed; constant regions not tied; also called Antibody 1
B3: SRP1848-D03 (antibody, V domains shown)
VH: EVQLVESGGGVVQPGGSLRLSCAASGFNIRYFSIHWVRQAPGKGLEWVGDIFPNDGSTDYADSVKGRFTISADTSKNTAYLQMNSLRAEETAVYYCARGHWSWPSGYWYYLDYWGQGTLVTVSS
VL: not shown
notes: VH/VL only; Fc-bearing IgG format with trastuzumab LC, HIS/FLAG-tagged, cell-free expressed; constant regions not tied; also called Antibody 25
B4: SRP1848-G04 (antibody, V domains shown)
VH: EVQLVESGGGLVQPGGSLRLSCAASGFNIHSTDIHWVRQAPGKGLEWVAYITPAGGATFYADSVKGRFTISADTSKNTAYLQMNSLRAEDTAVYYCARYPYWFAGYMDYWGQGTLVTVSS
VL: not shown
notes: VH/VL only; Fc-bearing IgG format with trastuzumab LC, HIS/FLAG-tagged, cell-free expressed; constant regions not tied; also called Antibody 49
B5: SRP1848-G06 (antibody, V domains shown)
VH: B4 VH with H30R, F59Y, S63N, Y99Q
VL: not shown
notes: VH/VL only; Fc-bearing IgG format with trastuzumab LC, HIS/FLAG-tagged, cell-free expressed; constant regions not tied; also called Antibody 50
B6: SRP1848-G11 (antibody, V domains shown)
VH: B4 VH with H30S, F59W, A104S
VL: not shown
notes: VH/VL only; Fc-bearing IgG format with trastuzumab LC, HIS/FLAG-tagged, cell-free expressed; constant regions not tied; also called Antibody 54
B7: SRP1848-G09 (antibody, V domains shown)
VH: B4 VH with H30R, S31G, Y99H, P100E, A104S
VL: not shown
notes: VH/VL only; Fc-bearing IgG format with trastuzumab LC, HIS/FLAG-tagged, cell-free expressed; constant regions not tied; also called Antibody 52
B8: SRP1848-G10 (antibody, V domains shown)
VH: B4 VH with G16S, H30R, F59Y, M107I
VL: not shown
notes: VH/VL only; Fc-bearing IgG format with trastuzumab LC, HIS/FLAG-tagged, cell-free expressed; constant regions not tied; also called Antibody 53
B9: SRP1848-G07 (antibody, V domains shown)
VH: B4 VH with F59W, Y101F
VL: not shown
notes: VH/VL only; Fc-bearing IgG format with trastuzumab LC, HIS/FLAG-tagged, cell-free expressed; constant regions not tied; also called Antibody 51
B10: SRP1848-H01 (antibody, V domains shown)
VH: B3 VH with V11L, Y31T, F32Q, V48I, N54I, S57I, E90D, H100S, Y107M, W108D
VL: not shown
notes: trastuzumab light chain; captured through Fc in SPR (IgG format); HIS- and FLAG-tagged; also called Antibody 55
B11: SRP2060-E10 (antibody, V domains shown)
VH: EVQLLESGGGLVQPGGSLRLSCAFSGFSLSTFGMGVGWVRQAPGKGLEWVSHIWWDDDKYYHPALKGRFTISKDNSKNTVYLQMNSLRAEDTAVYYCGRNHFPHYYGSSHWYFNVWGQGTTVTVSS
VL: EIVMTQSPATLSLSPGERATLSCKASQDINSYLSWYQQKPGQAPRLLIYRANRLVDGIPARFSGSGSGTDYTLTISSLEPEDFAVYYCLQYDEFPYTFGGGTKVEIK
B12: SRP2060-B01 (antibody, V domains shown)
VH: B11 VH with F24L, P43T, Y81H
VL: DIQMTQSPSTLSASVGDRVTITCKASQDINSYLSWYQQKPGKAPKLLIYRANRLVDGVPSRFSGSGSGTEFTLTISSLQPDDFATYYCLQYDEFPYTFGGGTKVEIK
B13: SRP2060-E05 (antibody, V domains shown)
VH: B11 VH with I71V
VL: B11 VL
B14: SRP2060-A06 (antibody, V domains shown)
VH: B11 VH with S51G, H62Y, N114D
VL: B12 VL

molecular target: T1, Murine folate receptor alpha (mouse, UniProt P35846 25-232); test: FACS, CHO-mFOLR1 cells
T1 construct: Stably expressed on CHO cells (CHO-mFOLR1); also called mouse FOLR1; CHO-mFOLR1
T1 sequence (P35846 25-232 limits assumed): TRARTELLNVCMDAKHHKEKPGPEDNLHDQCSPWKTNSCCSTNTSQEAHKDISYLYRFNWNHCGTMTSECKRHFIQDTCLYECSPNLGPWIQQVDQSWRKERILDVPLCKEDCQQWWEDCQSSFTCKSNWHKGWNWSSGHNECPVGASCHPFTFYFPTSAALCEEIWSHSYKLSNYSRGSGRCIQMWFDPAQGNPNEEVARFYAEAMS

Row | Binder | Bmax
1 | B1 | 2350 MFI
2 | B2 | 16500 MFI
3 | B3 | 3170 MFI
4 | B4 | 2000 MFI
5 | B5 | 1860 MFI
6 | B6 | 2740 MFI
7 | B7 | 2180 MFI
8 | B8 | 2890 MFI
9 | B9 | 1980 MFI

molecular target: T2, human FOLR1-HIS (human, UniProt P15328 25-234); test: SPR (Biacore), antibody captured on anti-Fc, FOLR1-HIS as analyte, 25 C
T2 construct: Soluble analyte of the Biacore assay; also called human folate receptor alpha; hFOLR1; not shown: HIS tag
Protocol: Anti-Fc polyclonal antibodies were immobilized onto a CM5 chip (GE Life Sciences) using amine coupling chemistry (from Amine Coupling Kit, GE Life Sciences). The immobilization steps were carried out at a flow rate of 25 μL/min in 1×HBS-EP+buffer (GE Life Sciences; 10× Stock diluted before use). The sensor surfaces were activated for 7 min with a mixture of N-hydroxysuccinimide (NHS, 0.05 M) and 1-ethyl-3-(3-dimethylaminopropyl)-carbodiimide (EDC, 0.2 M). The anti-Fc polyclonal antibodies were injected over all 4 flow cells at a concentration of 25 μg/mL in 10 mM sodium acetate, pH 4.5, for 7 min. Ethanolamine (1 M, pH 8.5) was injected for 7 min to block any remaining activated groups.
Off-rate and kinetic binding experiments were performed at 25° C. using 1×HBS-EP+buffer. Test and control antibodies were injected over the anti-Fc surface at concentrations of 5-10 μg/mL for 12 seconds at a flow rate of 10 μL/min on flow cells 2, 3 and 4, followed by a buffer wash for 30 seconds at the same flow rate.
The data were fit with the Biacore T200 Evaluation software, using a 1:1 Langmuir binding model. KD (affinity, nM) was determined as a ratio of the kinetic rate constants calculated from the fits of the association and dissociation phases.

T2 sequence (P15328 25-234 limits assumed): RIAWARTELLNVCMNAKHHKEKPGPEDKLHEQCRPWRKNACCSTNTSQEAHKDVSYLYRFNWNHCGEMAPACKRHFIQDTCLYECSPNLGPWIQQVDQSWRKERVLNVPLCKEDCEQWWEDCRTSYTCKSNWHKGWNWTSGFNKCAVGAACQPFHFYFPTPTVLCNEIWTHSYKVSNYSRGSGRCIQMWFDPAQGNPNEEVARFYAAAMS

Row | Binder | koff | kon
10 | B10 | 0.00139 s⁻¹ | 659000 M⁻¹ s⁻¹

molecular target: T3, Human folate receptor alpha (hFOLR1) (human, UniProt P15328 25-234); test: FACS, CHO-hFOLR1 cells
T3 construct: Stably expressed on CHO cells (CHO-hFOLR1) for flow cytometry; endogenous on FOLR1-positive KB and Igrov1 cells in the killing assay; also called human FOLR1; FolRα
Protocol: CHO cells were transfected to stably express human (CHO-hFOLR1), cynomolgus (CHO-cFOLR1), or mouse (CHO-mFOLR1) target molecule FOLR1 on the cell surface. Parental CHO cells were used as a negative control to determine background binding levels. Parental CHO and stably transfected CHO-hFOLR1, CHO-cFOLR1, and CHO-mFOLR1 cells were cultured in Ham's F-12: high glucose DMEM (50:50) (Corning, Cellgro-Mediatech) supplemented with 10% heat-inactivated fetal bovine serum (Corning, Cellgro-Mediatech), 1% Penicillin/Streptomycin (Corning, Cellgro-Mediatech) and 2 mmol/L-glutamax (Life Technology).
A mixture of fluoresecent-labeled parental CHO cells and unlabeled CHO-hFOLRlcells were prepared as follows. Parental CHO cells were washed twice in PBS and incubated in PBS containing with 1 nM CellTrace™ Oregon Green488® (Life Technologies) at 37° C. for 30 minutes. Labeled parental CHO cells were then washed 2× with Ham's F-12 media and 2× with FACS buffer (PBS with 1% bovine serum albumin). Unlabeled CHO-hFOLR1 cells were similarly washed and prepared. Labeled parental CHO and unlabeled CHO-hFOLR1 cells were combined at 1:1 ratio and seeded at 50 μL per well (200,000 cells per well) in 96 well polypropylene plates. Cells were mixed with 50 μL of test antibodies (i.e., anti-FOLR1 variants) serially diluted in FACS buffer and incubated on ice for 60 mins. Cells were washed with FACS buffer and incubated on ice for 60 mins with 100 μL FACS buffer containing 2.5 μg/mL R-Phycoerythrin-conjugated goat anti-Human IgG (Jackson ImmunoResearch Laboratories, West Grove, Pa.). Cells were washed twice with FACS buffer, fixed in 2% paraformaldehyde in PBS (Santa Cruz Biotechnology; Dallas, Tex.) for 10 mins on ice in the dark, and analyzed using the BD LSR II Flow Cytometer (BD Biosciences; San Jose, Calif.). Data were analyzed using FlowJo® software (FlowJo, LLC; Ashland, Oreg.) to determine mean fluorescence intensities. Binding constants were calculated using the statistical software, GraphPad Prism (GraphPad Software; La Jolla, Calif.) using the nonlinear regression equation, one site-specific binding with Hill slope. Secondary antibody alone was used as a control, in addition to measuring non-specific antibody binding to CHO parental cells.

T3 sequence (P15328 25-234 limits assumed): as above

Row | Binder | Bmax
11 | B1 | 25600 MFI
12 | B2 | 25900 MFI
13 | B3 | 26000 MFI
14 | B4 | 25200 MFI
15 | B5 | 25800 MFI
16 | B6 | 27200 MFI
17 | B7 | 25100 MFI
18 | B8 | 25300 MFI
19 | B9 | 24900 MFI

molecular target: FOLR1 on FOLR1-positive Igrov1 cells (UniProt P15328 25-234, limits assumed); test: cell-based or functional assay
Sequence (P15328 25-234 limits assumed): as above

Row | Binder | Igrov 2° Antibody Cell Killing, Nb-SC239: EC50 | Igrov 2° Antibody Cell Killing, Nb-SC239: span (%)
20 | B11 | 0.061 nM | 68%
21 | B12 | 0.045 nM | 76%
22 | B13 | 0.22 nM | 71%
23 | B14 | 0.013 nM | 66%

molecular target: T4, Cynomolgus folate receptor alpha (cynomolgus monkey, UniProt P15328 25-234 (human entry)); test: FACS, CHO-cFOLR1 cells
T4 construct: Stably expressed on CHO cells (CHO-cFOLR1); also called cynomolgus FOLR1; CHO-cFOLR1
T4 sequence (P15328 other isoform, or with tags, fused parts or gaps limits assumed): as the sequence (P15328 25-234 limits assumed) above, with I2T, W4R, R37K, Q117R, A146P, H171Y counted along it

Row | Binder | Bmax
24 | B1 | 15800 MFI
25 | B2 | 22600 MFI
26 | B3 | 14100 MFI
27 | B4 | 12500 MFI
28 | B5 | 12800 MFI
29 | B6 | 11800 MFI
30 | B7 | 17700 MFI
31 | B8 | 14200 MFI
32 | B9 | 13700 MFI
